Holding throughout (details): tags: R&D Systems; chain copies: 2
Series [1] deals with T1, NGF (nerve growth factor) (Homo sapiens, UniProt P01138 P01138:122-241). Nature of the series: cell_activity; neurite; TF-1 0.03.
The target in series [2] is T1, NGF (nerve growth factor). Nature of the series: cell_activity; neurite; TF-1 0.071.
Series [3] has as its target T1, NGF (nerve growth factor). Nature of the series: cell_activity; neurite; TF-1 0.051.
Series [4] has as its target T2, NT-3 (neurotrophin-3) (Homo sapiens, UniProt P20783 P20783:139-257).
T2 sequence: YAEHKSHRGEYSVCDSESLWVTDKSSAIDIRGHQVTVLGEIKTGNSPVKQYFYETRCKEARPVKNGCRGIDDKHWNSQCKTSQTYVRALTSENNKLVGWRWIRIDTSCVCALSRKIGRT
Nature of the series: cell_activity; TF-1.

The target in series [5] is T3, NT-4 (neurotrophin-4) (Homo sapiens, UniProt P34130 P34130:81-210).
T3 sequence: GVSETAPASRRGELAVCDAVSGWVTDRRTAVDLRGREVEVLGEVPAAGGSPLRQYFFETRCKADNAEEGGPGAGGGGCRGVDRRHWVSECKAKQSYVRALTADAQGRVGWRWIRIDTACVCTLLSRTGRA
Nature of the series: cell_activity; TF-1.

Series [6] addresses T1, NGF (nerve growth factor). Nature of the series: cell_activity; neurite; TF-1 0.036.
In series [7] the target is T1, NGF (nerve growth factor). Nature of the series: cell_activity; neurite; TF-1 0.027.
In series [8] the target is T1, NGF (nerve growth factor). Nature of the series: cell_activity; neurite; TF-1 0.087.
Series [9] has as its target T1, NGF (nerve growth factor). Nature of the series: cell_activity; neurite; TF-1 0.024.
Series [10] addresses T1, NGF (nerve growth factor). Nature of the series: cell_activity; neurite; TF-1 0.035.
The target of series [11] is T1, NGF (nerve growth factor). Nature of the series: cell_activity; neurite; TF-1 0.043.
For series [12], the target named is T1, NGF (nerve growth factor). Nature of the series: cell_activity; neurite; TF-1 0.031. How it is done: (§1) With the neurite length per cell obtained by the addition of NGF alone as inhibitory activity 0%, and that of the cell obtained by NGF free culture for 2 days as inhibitory activity 100%, the inhibitory activity of the aptamer was calculated from the neurite length per cell obtained by culturing with the addition of NGF and the aptamer in mixture.
(§2) Two NGF receptor (human TrkA and human p75) genes were introduced into TF-1 cells (ATCC Number: CRL-2003), which is a human erythroleukemic cell line, by using a retrovirus vector to give cells that highly express two receptors simultaneously and stably. The cells were suspended in an RPMI-1640 medium containing 20% fetal bovine serum, and seeded in a white 96 well flat-bottom plate at 1000 cells (50 μL) per well. […] With the amount of luminescence per well obtained by the addition of NGF alone and culture of the cells for 3 days as inhibitory activity 0%, and that of the well obtained by NGF free culture for 3 days as inhibitory activity 100%, the inhibitory activity of the aptamer was calculated from the amount of luminescence per well obtained by culturing with the addition of NGF and the aptamer in mixture.

Series [13] concerns the target T1, NGF (nerve growth factor). Nature of the series: cell_activity; neurite; TF-1 0.056.
For series [14], the target named is T1, NGF (nerve growth factor). Nature of the series: cell_activity; neurite; TF-1 0.073.
Series [15] addresses T1, NGF (nerve growth factor). Nature of the series: cell_activity; neurite; TF-1 0.075.
Series [16] has as its target T1, NGF (nerve growth factor). Nature of the series: cell_activity; neurite; TF-1 0.097. The procedure: as §1, §2
The target of series [17] is T1, NGF (nerve growth factor). Nature of the series: cell_activity; neurite; TF-1 0.093.
The target of series [18] is T1, NGF (nerve growth factor). Nature of the series: cell_activity; neurite; TF-1 0.042.
Series [19] deals with T1, NGF (nerve growth factor). Nature of the series: cell_activity; neurite; TF-1 0.033.
Series [20] has as its target T1, NGF (nerve growth factor). Nature of the series: cell_activity; neurite; TF-1 0.015.
Series [21] has as its target T1, NGF (nerve growth factor). Nature of the series: cell_activity; neurite; TF-1 0.178.
The target in series [22] is T1, NGF (nerve growth factor). Nature of the series: cell_activity; neurite; TF-1 0.016.
Series [23] deals with T1, NGF (nerve growth factor). Nature of the series: cell_activity; neurite; TF-1 0.030.
The target in series [24] is T1, NGF (nerve growth factor). Nature of the series: cell_activity; neurite; TF-1 0.025.
In series [25] the target is T1, NGF (nerve growth factor). Nature of the series: cell_activity; neurite; TF-1 0.083.
Series [26] concerns the target T1, NGF (nerve growth factor). Nature of the series: cell_activity; neurite; TF-1 0.028. How it is done:
as §1, §2

Series [27] has as its target T1, NGF (nerve growth factor). Nature of the series: cell_activity; neurite; TF-1 0.046.

Where only a bound is given, the exact number is not on record here.

T1 sequence (P01138 122-241, one chain of several): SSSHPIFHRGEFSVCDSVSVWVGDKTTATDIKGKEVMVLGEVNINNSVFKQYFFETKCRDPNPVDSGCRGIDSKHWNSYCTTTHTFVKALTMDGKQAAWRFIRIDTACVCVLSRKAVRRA

B1: SEQ ID NO: 80(1) (ssRNA)
RNA: GGGUCCUGGCUAAGAGUUUCCGUCUCGUAGUCUGUUACCC
modifications: 2'-OMe G (G8,G34 2'-OH), dA, 2'-F C/U; 5',3' idT
In series [1], B1 gave a concentration for half-maximal inhibition (IC50) of 0.271 nM.

B2: SEQ ID NO: 82(8) (ssRNA)
RNA: GGGUCCUGGAUAAGAGUUUCCGUCUCGUAUCCUGUUACCC
modifications: as 82(1) except 2'-OMe U25
Consider B2, for which the IC50 in [2] was determined as 0.284 nM.

B3: SEQ ID NO: 82(3) (ssRNA)
RNA: GGGUCCUGGAUAAGAGUUUCCGUCUCGUAUCCUGUUACCC
modifications: as 82(1) except 2'-OMe C6
As for B3, the IC50 in [3] was 0.255 nM; in [4], 42 nM; in series [5] it was 9.36 nM.

B4: SEQ ID NO: 82(4) (ssRNA)
RNA: GGGUCCUGGAUAAGAGUUUCCGUCUCGUAUCCUGUUACCC
modifications: as 82(1) except 2'-OMe U11
For B4, the IC50 was found to be 0.139 nM in [6], 30.4 nM in series [4] and 3.37 nM in series [5].

B5: SEQ ID NO: 82(12) (ssRNA)
RNA: GGGUCCUGGAUAAGAGUUUCCGUCUCGUAUCCUGUUACCC
modifications: as 82(1) except 2'-OMe C31
With B5, the values for the IC50 in series [7], in [4] and in series [5] were 0.127 nM, 34.7 nM and less than 3 nM, respectively.

B6: SEQ ID NO: 82(26) (ssRNA)
RNA: GGGUCCUGGAUAAGAGUUUCCGUCUCGUAUCCUGUUACCC
modifications: as 82(25) except 2'-OMe C20
On to B6, for which the IC50 in [4] was less than 30 nM; in series [8] it was 0.13 nM.

B7: SEQ ID NO: 82(45) (ssRNA)
RNA: GGGUCCUGGAUAAGAGUUUCCGUCUCGUAUCCUGUUACCC
modifications: as 82(25) except 2'-OMe A10
B7: the 50% inhibitory concentration (IC50) in series [9] came out at 0.037 nM.

B8: SEQ ID NO: 82(9) (ssRNA)
RNA: GGGUCCUGGAUAAGAGUUUCCGUCUCGUAUCCUGUUACCC
modifications: as 82(1) except 2'-OMe C26
In the case of B8, the values for the IC50 in series [4], in series [5] and in [10] were 34.8 nM, less than 3 nM and 0.252 nM, respectively.

B9: SEQ ID NO: 82(15) (ssRNA)
RNA: GGGUCCUGGAUAAGAGUUUCCGUCUCGUAUCCUGUUACCC
modifications: as 82(1) except 2'-OMe U35
For the molecule B9, the results for the IC50 in series [4], in [5] and in [11] were less than 30 nM, 8.35 nM and 0.127 nM, respectively.

B10: SEQ ID NO: 82(20) (ssRNA)
RNA: GGGUCCUGGAUAAGAGUUUCCGUCUCGUAUCCUGUUACCC
modifications: as 82(1) except 2'-OMe U4,C6,U11,C21,U23,C26,U30,C32,U35,C38-40
Turning to B10, the IC50 in series [4] was less than 30 nM; in series [12], 0.244 nM.

B11: SEQ ID NO: 82(48) (ssRNA)
RNA: GGGUCCUGGAUAAGAGUUUCCGUCUCGUAUCCUGUUACCC
modifications: as 82(25) except 2'-OMe A10,A15,A29,A37
As for B11, the IC50 in [13] turned out to be 0.252 nM.

B12: SEQ ID NO: 82(40) (ssRNA)
RNA: GGGUCCUGGAUAAGAGUUUCCGUCUCGUAUCCUGUUACCC
modifications: as 82(25) except dU25
B12 had an IC50 in [14] of 0.239 nM.

B13: SEQ ID NO: 82(5) (ssRNA)
RNA: GGGUCCUGGAUAAGAGUUUCCGUCUCGUAUCCUGUUACCC
modifications: as 82(1) except 2'-OMe C20
Regarding B13, the IC50 is 51.2 nM in series [4], less than 3 nM in series [5] and 0.269 nM in [15].

B14: SEQ ID NO: 82(37) (ssRNA)
RNA: GGGUCCUGGAUAAGAGUUUCCGUCUCGUAUCCUGUUACCC
modifications: as 82(25) except dU7
Regarding B14, in series [16], the concentration for half-maximal inhibition (IC50) stood at 0.098 nM.

B15: SEQ ID NO: 82(27) (ssRNA)
RNA: GGGUCCUGGAUAAGAGUUUCCGUCUCGUAUCCUGUUACCC
modifications: as 82(1) except dC5
On to B15, for which, in [17], half-maximal inhibition (IC50) required 0.25 nM.

B16: SEQ ID NO: 82(41) (ssRNA)
RNA: GGGUCCUGGAUAAGAGUUUCCGUCUCGUAUCCUGUUACCC
modifications: as 82(25) except dU36
The molecule B16 registered an IC50 in [18] of 0.084 nM.

B17: SEQ ID NO: 82(10) (ssRNA)
RNA: GGGUCCUGGAUAAGAGUUUCCGUCUCGUAUCCUGUUACCC
modifications: as 82(1) except 2'-OMe U28
As to B17, the IC50 in [4] is 35.3 nM; in series [5], less than 3 nM; in [19], 0.128 nM.

B18: SEQ ID NO: 78(3) (ssRNA)
RNA: GGGUCCUGGCCAAGAGUUUCCGUCUCGUGGUCUGUUACCC
modifications: 2'-OMe G (G8,G34 2'-OH), dA, 2'-F C/U except 2'-OMe U4,C6,C10,C11,C21,U23,C26,U28,C32,U35,C38-40; 5',3' idT
The molecule B18 registered an IC50 in series [20] of 0.045 nM.

B19: SEQ ID NO: 87(5) (ssRNA)
RNA: GGGUCCUGCUCAAGAGUUUCCGUCUCGUGGGCUGUUACCC
modifications: as 87(4) plus 2'-OMe A15,A37; no 5' idT
Take B19: in [21], the IC50 was 0.078 nM.

B20: SEQ ID NO: 78(2) (ssRNA)
RNA: GGGUCCUGGCCAAGAGUUUCCGUCUCGUGGUCUGUUACCC
modifications: 2'-OMe G (G8,G34 2'-OH), dA, 2'-F C/U except 2'-OMe U4,C6,C21,U23,C26,U28,U31,C32,U35,C38-40; 5',3' idT
In turn, B20 displayed an IC50 in series [22] of 0.045 nM.

B21: SEQ ID NO: 82(7) (ssRNA)
RNA: GGGUCCUGGAUAAGAGUUUCCGUCUCGUAUCCUGUUACCC
modifications: as 82(1) except 2'-OMe U23
Regarding B21, the results for the IC50 in series [4], in series [5] and in series [23] were less than 30 nM, 3.74 nM and 0.143 nM, respectively.

B22: SEQ ID NO: 82(17) (ssRNA)
RNA: GGGUCCUGGAUAAGAGUUUCCGUCUCGUAUCCUGUUACCC
modifications: as 82(1) except 2'-OMe C39
Consider B22, for which the values for the IC50 in series [4], in series [5] and in series [24] were less than 30 nM, less than 3 nM and 0.127 nM, respectively.

B23: SEQ ID NO: 82(22) (ssRNA)
RNA: GGGUCCUGGAUAAGAGUUUCCGUCUCGUAUCCUGUUACCC
modifications: as 82(1) except 2'-OMe U4,C6,U11,C21,U23,C26,U28,U30,C32,U35,C38-40
With B23, the IC50 was less than 30 nM in series [4] and less than 0.1 nM in [25].

B24: SEQ ID NO: 82(18) (ssRNA)
RNA: GGGUCCUGGAUAAGAGUUUCCGUCUCGUAUCCUGUUACCC
modifications: as 82(1) except 2'-OMe C40
As for B24, the IC50 was 0.244 nM in [26], 38.7 nM in series [4] and less than 3 nM in series [5].

B25: SEQ ID NO: 82(11) (ssRNA)
RNA: GGGUCCUGGAUAAGAGUUUCCGUCUCGUAUCCUGUUACCC
modifications: as 82(1) except 2'-OMe U30
Consider B25, for which the values for the IC50 in series [4], in series [5] and in series [27] were 38.1 nM, 3.42 nM and 0.253 nM, respectively.

The term IC50 denotes the concentration that gives 50% inhibition. Higher therefore signals weaker potency.

(Values after patent publication US20140235701, “NGF APTAMER AND APPLICATION THEREOF” (RIBOMIC INC., published 2014).)
